This is an account of results in patent US20220340642A1 (Kyowa Kirin, published 2022).

Assay [1] concerns the target T1, DcR3 FL-Fc (R&D Systems, Inc.) (human, UniProt O95407 30-300).
T1 construct: Bought product made in insect cells; also called DcR3-Fc (R&D Systems, Inc.); DcR3 FL-Fc (IgG1)
T1 sequence: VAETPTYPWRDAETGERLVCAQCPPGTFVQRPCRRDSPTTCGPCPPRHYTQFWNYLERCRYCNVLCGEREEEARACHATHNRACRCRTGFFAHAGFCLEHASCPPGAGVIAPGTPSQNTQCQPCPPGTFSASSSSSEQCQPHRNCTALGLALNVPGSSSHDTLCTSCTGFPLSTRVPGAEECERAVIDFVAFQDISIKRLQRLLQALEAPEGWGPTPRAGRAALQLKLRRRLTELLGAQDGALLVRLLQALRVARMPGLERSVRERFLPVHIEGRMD
Briefly: SPR, binder captured. The procedure:
Regarding each of the various wild-type DcR3 controls and the DcR3 variants shown in Table 9, the binding activities to DcR3 ligands (LIGHT, TL1A, FasL) were analyzed by the SPR method using BIAcore T-100 (GE Healthcare). As the buffer, HBS-EP+Buffer was used.
After 10,000 RU of anti-human antibodies were immobilized to Series S Sensor Chip CM5 using Human Antibody Capture Kit (GE Healthcare), various wild-type DcR3 controls and DcR3 variants were injected at the flow rate of 10 μL/min for 30 seconds and captured. Meanwhile, the buffer containing no protein was injected into reference flow cells. Thereafter, as an analyte, DcR3 ligands of a human, a cynomolgus monkey or a mouse diluted to 0.08 to 80 nmol/L were injected at 10 μL/min for 2 minutes to monitor the binding, and subsequently the buffer was injected for 3 minutes to monitor dissociation. Then, 3 mol/L magnesium chloride was injected at 20 μL/min for 1 minute to perform a regeneration reaction. […] As a result of measurement, except for mouse LIGHT for which a trimer could not be produced, it was confirmed that various wild-type DcR3 controls and DcR3 variants bind to each DcR3 ligand of a human, a cynomolgus monkey or a mouse.
For orientation: SPR reads the build-up and loss of mass on a sensor chip optically.

The target in assay [2] is T2, soluble recombinant of human FasL (His6, Pro134-Leu281) (UniProt P48023 134-281).
T2 chain: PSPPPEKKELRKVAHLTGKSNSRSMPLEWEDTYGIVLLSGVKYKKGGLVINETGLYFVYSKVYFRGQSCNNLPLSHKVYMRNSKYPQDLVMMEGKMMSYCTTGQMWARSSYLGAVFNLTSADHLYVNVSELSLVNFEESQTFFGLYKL
Briefly: BIAcore SPR. An outline of the steps: (§1)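 The dissociation constant (Kd, nM) reflects binding of each test molecule to soluble recombinant His-tagged human or cynomolgus monkey LIGHT, TL1A or FasL. It was derived from surface plasmon resonance measurements in HBS-EP+ Buffer using a BIAcore T-100 or T-200 instrument (GE Healthcare).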

Assay [3] concerns the target T3, soluble recombinant of human LIGHT (His10, GS linker, Asp74-Val240).
T3 chain: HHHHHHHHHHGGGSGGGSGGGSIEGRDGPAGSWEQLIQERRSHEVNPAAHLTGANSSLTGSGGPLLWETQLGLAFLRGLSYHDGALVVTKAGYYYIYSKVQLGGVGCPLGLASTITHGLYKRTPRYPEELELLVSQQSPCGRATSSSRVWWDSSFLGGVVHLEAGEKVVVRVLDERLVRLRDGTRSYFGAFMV
Description: BIAcore SPR. An outline of the steps:
as §1

For assay [4], the target named is T4, soluble recombinant of human TL1A (His6, GS linker, Leu72-Leu251) (UniProt O95150 72-251).
T4 chain: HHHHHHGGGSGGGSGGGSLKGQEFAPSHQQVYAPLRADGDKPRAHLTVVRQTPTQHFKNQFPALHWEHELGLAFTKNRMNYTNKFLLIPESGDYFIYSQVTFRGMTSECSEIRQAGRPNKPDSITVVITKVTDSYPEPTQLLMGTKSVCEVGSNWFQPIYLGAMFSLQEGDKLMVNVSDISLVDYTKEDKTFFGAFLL
Briefly: BIAcore SPR. An outline of the steps: as §1

B1: soluble recombinant of human FasL (His6, Pro134-Leu281) (ligand)
chain: PSPPPEKKELRKVAHLTGKSNSRSMPLEWEDTYGIVLLSGVKYKKGGLVINETGLYFVYSKVYFRGQSCNNLPLSHKVYMRNSKYPQDLVMMEGKMMSYCTTGQMWARSSYLGAVFNLTSADHLYVNVSELSLVNFEESQTFFGLYKL
For the molecule B1, in assay [1], the affinity, expressed as Kd, was 1300 pM; the koff came to 0.0004 s⁻¹; the kon was 310000 M⁻¹ s⁻¹.

B2: soluble recombinant of cynomolgus monkey FasL (His6, Pro133-Leu280) (ligand)
chain: PSPPPEKKEQRKVAHLTGKPNSRSMPLEWEDTYGIVLLSGVKYKKGGLVINETGLYFVYSKVYFRGQSCTNLPLSHKVYMRNSKYPQDLVMMEGKMMSYCTTGQMWAHSSYLGAVFNLTSADHLYVNVSELSLVNFEESQTFFGLYKL
notes: also called His6-cynoFasL
In the case of B2, in assay [1], binding was characterised by a dissociation constant (Kd) of 1100 pM, the koff came to 0.00033 s⁻¹ and the kon is 300000 M⁻¹ s⁻¹.

B3: soluble recombinant of mouse TL1A (His6, GS linker, Ile94-Leu270) (ligand)
chain: HHHHHHGGGSGGGSGGGSITEERSEPSPQQVYSPPRGKPRAHLTIKKQTPAPHLKNQLSALHWEHDLGMAFTKNGMKYINKSLVIPESGDYFIYSQITFRGTTSVCGDISRGRRPNKPDSITMVITKVADSYPEPARLLTGSKSVCEISNNWFQSLYLGATFSLEEGDRLMVNVSDISLVDYTKEDKTFFGAFLL
Regarding B3, in assay [1], the affinity, expressed as Kd, was 580 pM; the koff came to 0.00049 s⁻¹; the kon came out at 840000 M⁻¹ s⁻¹.

B4: soluble recombinant of human TL1A (His6, GS linker, Leu72-Leu251) (ligand)
chain: HHHHHHGGGSGGGSGGGSLKGQEFAPSHQQVYAPLRADGDKPRAHLTVVRQTPTQHFKNQFPALHWEHELGLAFTKNRMNYTNKFLLIPESGDYFIYSQVTFRGMTSECSEIRQAGRPNKPDSITVVITKVTDSYPEPTQLLMGTKSVCEVGSNWFQPIYLGAMFSLQEGDKLMVNVSDISLVDYTKEDKTFFGAFLL
notes: also called His6-TL1A; hTL1A
B4: in assay [1], binding was put at a Kd of 890 pM, the koff is 0.00035 s⁻¹ and the kon worked out at 390000 M⁻¹ s⁻¹.

B5: soluble recombinant of cynomolgus monkey TL1A (His6, GS linker, Leu72-Leu251) (ligand)
chain: HHHHHHGGGSGGGSGGGSLKGQEFAPSHQQVYAPLRADGDKPRAHLTVVRQTPTQHLKNQFPALHWEHELGLAFTKNRMNYTNKFLLIPESGDYFVYSQVTFRGMTSECSEIRQAGRPNKPDSITVVITKVTDSYPEPTQLLMGTKSVCEVGSNWFQPIYLGAMFSLQEGDKLMVNVSDISLVDYTKEDKTFFGAFLL
notes: also called His6-cynoTL1A
In assay [1], B5 registered a Kd of 920 pM, an off-rate (koff) of 0.00035 s⁻¹ and an on-rate (kon) of 380000 M⁻¹ s⁻¹.

B6: soluble recombinant of human LIGHT (His10, GS linker, Asp74-Val240) (ligand)
chain: HHHHHHHHHHGGGSGGGSGGGSIEGRDGPAGSWEQLIQERRSHEVNPAAHLTGANSSLTGSGGPLLWETQLGLAFLRGLSYHDGALVVTKAGYYYIYSKVQLGGVGCPLGLASTITHGLYKRTPRYPEELELLVSQQSPCGRATSSSRVWWDSSFLGGVVHLEAGEKVVVRVLDERLVRLRDGTRSYFGAFMV
In assay [1], B6 yielded a Kd of 1100 pM, a koff of 0.0004 s⁻¹ and a kon of 380000 M⁻¹ s⁻¹.

B7: soluble recombinant of cynomolgus monkey LIGHT (His10, GS linker, Asp74-Val240) (ligand)
chain: HHHHHHHHHHGGGSGGGSGGGSIEGRDGHGGSWEQLIQERRSHQNNPAAHLTGANSSLTGSGGPLLWETQLGLAFLRGLDYHDGALVANKAGYYYIYSKVQLGGVGCPLGLASTITHGLYKRTPRYPEELELLVSQQSPCGRATSNSRVWWDSSFLGGVVHLEVGEEVVVRVLDERLVRLRDGTRSYFGAFMV
In assay [1], B7 registered a Kd of 1200 pM, a koff of 0.00038 s⁻¹ and a kon of 310000 M⁻¹ s⁻¹.

B8: soluble recombinant of mouse LIGHT (His10, GS linker, Asp72-Val239) (ligand)
chain: HHHHHHHHHHGGGSGGGSGGGSIEGRDGGKGSWEKLIQDQRSHQANPAAHLTGANASLIGIGGPLLWETRLGLAFLRGLTYHDGALVTMEPGYYYVYSKVQLSGVGCPQGLANGLPITHGLYKRTSRYPKELELLVSRRSPCGRANSSRVWWDSSFLGGVVHLEAGEEVVVRVPGNRLVRPRDGTRSYFGAFMV
As for B8, the binding result in assay [1] is “no binding (tested: 0.08 to 80 nmol/L)”.

B9: DcR3 FL-Fc (R&D Systems, Inc.) (Fc fusion)
chain: VAETPTYPWRDAETGERLVCAQCPPGTFVQRPCRRDSPTTCGPCPPRHYTQFWNYLERCRYCNVLCGEREEEARACHATHNRACRCRTGFFAHAGFCLEHASCPPGAGVIAPGTPSQNTQCQPCPPGTFSASSSSSEQCQPHRNCTALGLALNVPGSSSHDTLCTSCTGFPLSTRVPGAEECERAVIDFVAFQDISIKRLQRLLQALEAPEGWGPTPRAGRAALQLKLRRRLTELLGAQDGALLVRLLQALRVARMPGLERSVRERFLPVHIEGRMD
B9: the results for the Kd in assay [2], in assay [3] and in assay [4] were 930 pM, 210 pM and 210 pM, respectively.

B10: soluble recombinant of mouse FasL (His6, Pro132-Leu279) (ligand)
chain: HHHHHHPSTPSEKKEPRSVAHLTGNPHSRSIPLEWEDTYGTALISGVKYKKGGLVINETGLYFVYSKVYFRGQSCNNQPLNHKVYMRNSKYPEDLVLMEEKRLNYCTTGQIWAHSSYLGAVFNLTSADHLYVNISQLSLINFEESKTFFGLYKL
Turning to B10, in assay [1], the Kd is 65000 pM, the koff was 0.0097 s⁻¹ and the kon is 150000 M⁻¹ s⁻¹.

Broadly, the Kd is the equilibrium constant for the complex coming apart. The koff is the rate constant with which the complex falls apart. A low value points to slow dissociation. The term kon denotes the second-order rate constant of association. High values mean fast association, low ones slow association.
